Here are results for 30 molecules from patent US20250145729A1 (DENALI THERAPEUTICS, published 2025).

Where a chain is given by its changes, count along the chain named. Numbers in names are those of the source.

T1: human CD98hc (human, UniProt P08195 109-529)
T1 construct: also called huCD98hc; CD98 heavy chain
T1 sequence: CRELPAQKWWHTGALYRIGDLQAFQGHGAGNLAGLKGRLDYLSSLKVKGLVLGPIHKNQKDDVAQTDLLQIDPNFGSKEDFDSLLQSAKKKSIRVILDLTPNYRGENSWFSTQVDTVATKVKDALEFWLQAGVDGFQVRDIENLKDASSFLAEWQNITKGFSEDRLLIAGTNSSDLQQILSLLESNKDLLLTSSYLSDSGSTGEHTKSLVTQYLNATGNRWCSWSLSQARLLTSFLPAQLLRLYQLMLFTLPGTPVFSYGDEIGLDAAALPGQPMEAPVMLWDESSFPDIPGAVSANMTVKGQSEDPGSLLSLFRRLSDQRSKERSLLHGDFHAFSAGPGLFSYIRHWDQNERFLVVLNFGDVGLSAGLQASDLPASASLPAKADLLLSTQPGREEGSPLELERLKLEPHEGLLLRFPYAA

T2: circularly permuted human TfR apical domain (human)
T2 construct: TfR residues 326-379 stand N-terminal to 194-296, loop 297-325 deleted; also called huTfR Apical Domain
T2 chain: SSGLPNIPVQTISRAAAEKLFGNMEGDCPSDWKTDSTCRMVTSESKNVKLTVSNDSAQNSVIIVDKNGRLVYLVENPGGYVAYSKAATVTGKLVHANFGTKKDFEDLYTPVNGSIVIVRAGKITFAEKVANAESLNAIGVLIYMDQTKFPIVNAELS

T3: circularly permuted cyno TfR apical domain (cynomolgus monkey)
T3 construct: same design as the human construct; also called cyTfR Apical Domain; cynomolgus TfR apical domain
T3 chain: T2 chain with R39K, S45N, N47S, R69G, Y108D, T109S, N153K, E155D

B1: LLB2-10-8.d20 (Fc fusion)
chain: APELLGGPSVFLFPPKPKDTLMISRTPEVTCVVVDVSHEDPEVKFNWYVDGVEVHNAKTKPREEQYNSTYRVVSVLTVLHQDWLNGKEYKCKVSNKALPAPIEKTISKAKGQPREPQVYTLPPSRDELTKNQVSLTCLVKGFYPSDIAVLWSSHYELENNYKTTPPVLDSDGSFFLYSKLTVDKSRWQQGNVFACNVYHEALHNHYTFKNLALSPGK
notes: Fc part only
B2: LLB2-10-8.d24 (Fc fusion)
chain: B1 chain with S152N, H154R, E156V
notes: Fc part only
B3: LLB2-10-8.d22 (Fc fusion)
chain: B1 chain with H154K, Y155F
notes: Fc part only
B4: LLB2-10-8.d25 (Fc fusion)
chain: B1 chain with S152N, H154R, Y155F, E156Q
notes: Fc part only
B5: LLB2-10-8.d30 (Fc fusion)
chain: B1 chain with S152N, H154Q, Y155F
notes: Fc part only
B6: LLB2-10-8.d32 (Fc fusion)
chain: B1 chain with H154Q, Y155F
notes: Fc part only
B7: LLB2-10-8.d28 (Fc fusion)
chain: B1 chain with H154R, E156V
notes: Fc part only
B8: LLB2-10-8.d29 (Fc fusion)
chain: B1 chain with H154R, Y155F, E156Q
notes: Fc part only
B9: LLB2-10-8.d27 (Fc fusion)
chain: B1 chain with S152N, H154R, Y155F, E156Q, L157P
notes: Fc part only
B10: LLB2-10-8.d21 (Fc fusion)
chain: B1 chain with H154R, Y155F, E156V
notes: Fc part only
B11: LLB2-10-8.d23 (Fc fusion)
chain: B1 chain with H154Q
notes: Fc part only
B12: LLB2-10-8.d26 (Fc fusion)
chain: B1 chain with S152N, H154R, Y155F, E156V, L157P
notes: Fc part only
B13: LLB2-10-8.d31 (Fc fusion)
chain: B1 chain with S152N, H154Q, E156Q
notes: Fc part only
B14: 6.5.11.5.42.2.d10 (Fc fusion)
chain: APELLGGPSVFLFPPKPKDTLMISRTPEVTCVVVDVSHEDPEVKFNWYVDGVEVHNAKTKPREEQYNSTYRVVSVLTVLHQDWLNGKEYKCKVSNKALPAPIEKTISKAKGQPREPQVYTLPPSRDELTKNQVSLTCLVKGFYPSDIAVEWFSDGSTETNYKTTPPVLDSDGSFFLYSKLTVDKSRWQQGNLFACEVMHEALHNHYTYKLLSLSPGK
B15: 6.5.11.5.42.2.d13 (Fc fusion)
chain: B14 chain with T157P, T159N, L192V
B16: 6.5.11.5.42.2.d15 (Fc fusion)
chain: B14 chain with D154F, S156Q, T157K
B17: 6.5.11.5.42.2.d14 (Fc fusion)
chain: B14 chain with D154N, S156Q, T157K
B18: 6.5.11.5.42.2.d11 (Fc fusion)
chain: B14 chain with T157K, T159S
B19: 6.5.11.5.42.2.d12 (Fc fusion)
chain: B14 chain with T157P, T159N
B20: 42.2.1.2 mono (Fc fusion)
chain 1: B14 chain with L4A, L5A, P99G, T136W, S153Y, G155D, T157K, E158L
chain 2: APEAAGGPSVFLFPPKPKDTLMISRTPEVTCVVVDVSHEDPEVKFNWYVDGVEVHNAKTKPREEQYNSTYRVVSVLTVLHQDWLNGKEYKCKVSNKALGAPIEKTISKAKGQPREPQVYTLPPSRDELTKNQVSLSCAVKGFYPSDIAVEWESNGQPENNYKTTPPVLDSDGSFFLVSKLTVDKSRWQQGNVFSCSVMHEALHNHYTQKSLSLSPGK
notes: knob+P329G+LALA with TfR site, hole+P329G+LALA without
B21: 42.2.3.1C mono (Fc fusion)
chain 1: B14 chain with L4A, L5A, P99G, T136W, S153G, D154T, G155N, S156K, T157K
chain 2: B20 chain 2
notes: as for B20
B22: 42.2.7.2 mono (Fc fusion)
chain 1: B14 chain with L4A, L5A, P99G, T136W, T157K, H203E, N204G
chain 2: B20 chain 2
notes: M428 kept here
B23: 42.2.1.20 mono (Fc fusion)
chain 1: B14 chain with L4A, L5A, P99G, T136W, S153A, G155A, T157K, E158Q, T159R
chain 2: B20 chain 2
notes: as for B20
B24: 42.2.3.3 mono (Fc fusion)
chain 1: B14 chain with L4A, L5A, P99G, T136W, S153T, G155N, S156Y, T157K
chain 2: B20 chain 2
notes: as for B20
B25: 42.2.3.5 mono (Fc fusion)
chain 1: B14 chain with L4A, L5A, P99G, T136W, S153Y, D154G, G155N, S156G, T157K
chain 2: B20 chain 2
notes: as for B20
B26: 42.2.5.2 mono (Fc fusion)
chain 1: B14 chain with L4A, L5A, P99G, T136W, T157K, Q189P, G190R, N191G, S212G, L213E
chain 2: B20 chain 2
notes: as for B20
B27: 42.2.3.1H mono (Fc fusion)
chain 1: B14 chain with L4A, L5A, P99G, T136W, S153Y, D154G, G155N, S156A, T157K
chain 2: B20 chain 2
notes: as for B20
B28: 42.2.19 mono (Fc fusion)
chain 1: APEAAGGPSVFLFPPKPKDTLMISRTPEVTCVVVDVSHEDPEVKFNWYVDGVEVHNAKTKPREEQYNSTYRVVSVLTVLHQDWLNGKEYKCKVSNKALGAPIEKTISKAKGQPREPQVYTLPPSRDELTKNQVSLWCLVKGFYPSDIAVEWFYDDSKLTNYKTTPPVLDSDGSFFLYSKLTVDKSRWQPRGLFACEVMHEALHNHYTYKLLGESPGK
chain 2: B20 chain 2
notes: as for B20
B29: 42.2.3.4 mono (Fc fusion)
chain 1: B14 chain with L4A, L5A, P99G, T136W, S153A, D154G, S156G, T157K
chain 2: B20 chain 2
notes: as for B20
B30: 42.2.5.4 mono (Fc fusion)
chain 1: B28 chain 1 with Y153S, D155G, L158E, P189Q, R190Q, E213Y
chain 2: B20 chain 2
notes: as for B20

One test addresses T1, human CD98hc. Kind of test: SPR (Biacore). The protocol:
Variants that bound with measurable affinity from this round of engineering are shown in Table A12 and the corresponding human binding affinity by surface plasmon resonance (SPR) using a Biacore™ machine are shown in Table 9B. Cell binding of the clones was also tested in HeLa cells for huCD98hc binding and CHO cells as a negative control.
On to B1, for which the affinity, expressed as Kd, was 2300 nM.
Same read-out and setting: as for B2, the figure is 2600 nM; as for B3, 5200 nM.
Turning to B4, the Kd worked out at 670 nM.
The same measure, in the same setting: next, B5: 1000 nM; B6: 3100 nM.
Still for that read-out and setting: as for B7, the figure is 4200 nM; as for B8, 1300 nM.
In the case of B9, the binding result is listed as “no binding”.
B10 had a Kd of 2000 nM.
Still for that read-out and setting: as for B11, the figure is 1800 nM.
As for B12, the binding result is reported as “no binding”.
Regarding B13, binding was put at a Kd of 460 nM.

The target of a further test is T2, circularly permuted human TfR apical …. The test is described as follows: Biacore SPR.
For the molecule B14, the affinity, expressed as Kd, was 1800 nM.
For B15, the binding result is reported as “no binding”.
B16 came in with a Kd of 2000 nM.
B17 registered a Kd of 9400 nM.
For the molecule B18, the Kd came out at 1800 nM. This Kd lies about 5.2-fold lower than the previous one.
Still for that read-out and setting: next, B19: 4900 nM.

The target is the same in the next test. Kind of test: method not named for this table (Biacore elsewhere).
As for B20, the Kd came out at 284 nM.
With B21, binding was put at a Kd of 1000 nM.
On the same count and under the same terms, next, B22: 162 nM; B23: 440 nM; B24: 360 nM.
B25 yielded a dissociation constant (Kd) of 260 nM.
B26 returned a dissociation constant (Kd) of 180 nM.
Same read-out and setting: as for B27, the figure is 220 nM; as for B28, 79 nM; as for B29, 181 nM.
As to B30, the equilibrium dissociation constant (Kd) came out at 400 nM.

A further test concerns the target T3, circularly permuted cyno TfR apical …. Described as above.
For B20, binding was characterised by a dissociation constant (Kd) of 7000 nM.
The same measure, in the same setting: next, B21: 10000 nM.
On the same count and under the same terms, as for B22, the figure is 10000 nM.
For the molecule B23, the Kd came out at 7000 nM.
Regarding B24, the Kd amounted to 8000 nM.
B25: binding was put at a Kd of 1800 nM.
Still for that read-out and setting: next, B26: 2000 nM; B27: 2000 nM; B28: 1100 nM.
B29 displayed a Kd of 4000 nM.
Turning to B30, the equilibrium dissociation constant (Kd) is 6500 nM.
